From patent US6906179 (GENERAL HOSPITAL, dated 2005) come the findings set out here.

To fix the notation:
B1: HEF1 M2/N (aa 651-759) (other, human, UniProt Q14511 651-759, looked up)
chain: ENIMKQNKMQLEHHQLSQFQLLEQEITKPVENDISKWKPSQSLPTTNSGVSAQDRQLLCFYYDQCETHFISLLNAIDALFSCVSSAQPPRIFVAHSKFVILSAHKLVFI
notes: range 651-759
B2: Smad4 (other, UniProt Q13485 1-552, looked up)
chain: MDNMSITNTPTSNDACLSIVHSLMCHRQGGESETFAKRAIESLVKKLKEKKDELDSLITAITTNGAHPSKCVTIQRTLDGRLQVAGRKGFPHVIYARLWRWPDLHKNELKHVKYCQYAFDLKCDSVCVNPYHYERVVSPGIDLSGLTLQSNAPSSMMVKDEYVHDFEGQPSLSTEGHSIQTIQHPPSNRASTETYSTPALLAPSESNATSTANFPNIPVASTSQPASILGGSHSEGLLQIASGPQPGQQQNGFTGQPATYHHNSTTTWTGSRTAPYTPNLPHHQNGHLQHHPPMPPHPGHYWPVHNELAFQPPISNHPAPEYWCSIAYFEMDVQVGETFKVPSSCPIVTVDGYVDPSGGDRFCLGQLSNVHRTEAIERARLHIGKGVQLECKGEGDVWVRCLSDHAVFVQSYYLDREAGRAPGDAVHKIYPSAYIKVFDLRQCHRQMQQQAATAQAAAAAQAAAVAGNIPGPGSVGGIAPAISLSAAAGIGVDDLRRLCILRMSFVKGWGPDYPRQSIKETPCWIEIHLHRALQLLDEVLHTMPIADPQPLD
notes: also called DPC4
B3: Smad3N (aa 1-144) (other, UniProt P84022 1-144, looked up)
chain: MSSILPFTPPIVKRLLGWKKGEQNGQEEKWCEKAVKSLVKKLKKTGQLDELEKAITTQNVNTKCITIPRSLDGRLQVSHRKGLPHVIYCRLWRWPDLHSHHELRAMELCEFAFNMKKDEVCVNPYHYQRVETPVLPPVLVPRHT
notes: range 1-144; also called N-terminal MH1 domain of Smad3
B4: Clone S1+28 (other)
chain: FAVDAKALPQNKPRPLTQEEIAQRRERARQRHAEKLAAAQGQAPLEPTQDGSAIETCPKGDEPRGDEQQVESMTPKPVLQEENNQESFIAFARVFSGVARRGKKIFVLGPKYSPLEFLRRVPLCFSAPPDGLPQVPHMAYCALENLYLLMGRELEYLEEVPPGNVLGIGGLQDFVLKSATLCSLPSCPPFIPLNFEATPIVRVAVEPKHPSEMPQLVKGMKLLNQADPCVQILIQETGEHVLVTAGEVHLQRCLDDLKERFAKIHISVSEPIIPFRETITKPPKVDMVNEEIGKQQKVAVIHQMKEDQSKIPEGIQVDSDGLITITTPNKLATLSVRAMPLPEEVTQILEENSDLIRSMEQLTSSLNEGENTHMIHQKTQEKIWEFKGKLEQHLTGRRWRNIVDQIWSFGPRKCGPNILVNKSEDFQNSVWTGPADKASKEASRYRDLGNSIVSGFQLATLSGPMCEEPLMGVCFVLEKWDLSKFEEQGASDLAKEDRRKMKPVLVEMKTKSYKMAALRPLRRGHHRKENLHSLTAMDLSQDS
notes: Novel clone from the human fetal brain library; also called human homologue of yeast translocation elongation factor
B5: HEF1 M2/M (aa 695-759) (other, human, UniProt Q14511 695-759, looked up)
chain: TTNSGVSAQDRQLLCFYYDQCETHFISLLNAIDALFSCVSSAQPPRIFVAHSKFVILSAHKLVFI
notes: range 695-759
B6: Clone S1+12 (other)
chain: EFGTRRMMEGLDDGPDFLSEEDRGLKAINVDLQSDAALQVDISDALSERDKVKFTVHTKSSLPNFKQNEFSVVRQHEEFIWLHDSFVENEDYAGYIIPPAPPRPDFDASREKLQKLGEGEGSMTKEEFTKMKQELEAEYLAIFKKTVAMHEVFLCRVAAHPILRRDLNFHVFLEYNQDLSVRGKKKKKNSRSFGLLRQ
notes: also called sorting nexin-like protein
B7: Clone S1+27 (SIP2) (other)
chain: KSSPLLIRMEESLNIVKYTAFLYNDQLIWSGLEQDDMRILYKYLTTSLFPRHIEPELAGRDSPIRAEMPGNLQHYGRFLTGPLNLNDPDAKCRFPKIFVNTDDTYEELHLIVYKAMSAAVCFMIDASVHPTLDFCRRLDSIVGPQLTVLASDICEQFNINKRMSGSEKEPQFKFIYFNHMNLAEKSTVHMRKTPSVSLTSVHPDLMKILGDINSDFTRVDEDEEIIVKAMSDYWVVGKKSDRRELYVILNQKNANLIEVNEVKKLCATQFNNIFFLD
notes: Novel clone from the human fetal brain library; also called Clone Smad1+ (S1+)27
B8: HEF1 M2/C (aa 695-832) (other, human, UniProt Q14511 695-832, looked up)
chain: TTNSGVSAQDRQLLCFYYDQCETHFISLLNAIDALFSCVSSAQPPRIFVAHSKFVILSAHKLVFIGDTLTRQVTAQDIRNKVMNSSNQLCEQLKTIVMATKMAALHYPSTTALQEMVHQVTDLSRNAQLFKRSLLEMA
notes: range 695-832
B9: Smad1 (other, UniProt Q15797 1-465, looked up)
chain: MNVTSLFSFTSPAVKRLLGWKQGDEEEKWAEKAVDALVKKLKKKKGAMEELEKALSCPGQPSNCVTIPRSLDGRLQVSHRKGLPHVIYCRVWRWPDLQSHHELKPLECCEFPFGSKQKEVCINPYHYKRVESPVLPPVLVPRHSEYNPQHSLLAQFRNLGQNEPHMPLNATFPDSFQQPNSHPFPHSPNSSYPNSPGSSSSTYPHSPTSSDPGSPFQMPADTPPPAYLPPEDPMTQDGSQPMDTNMMAPPLPSEINRGDVQAVAYEEPKHWCSIVYYELNNRVGEAFHASSTSVLVDGFTDPSNNKNRFCLGLLSNVNRNSTIENTRRHIGKGVHLYYVGGEVYAECLSDSSIFVQSRNCNYHHGFHPTTVCKIPSGCSLKIFNNQEFAQLLAQSVNHGFETVYELTKMCTIRMSFVKGWGAEYHRQDVTSTPCWIEIHLHGPLQWLDKVLTQMGSPHNPISSVS
notes: also called Smad1 itself
B10: LexA-Smad1 (full length Smad1 fused in frame to the LexA DNA binding domain (1-202) in pEG202) (other)
chain: MKALTARQQEVFDLIRDHISQTGMPPTRAEIAQRLGFRSPNAAEEHLKALARKGVIEIVSGASRGIRLLQEEEEGLPLVGRVAAGEPLLAQQHIEGHYQVDPSLFKPNADFLLRVSGMSMKDIGIMDGDLLAVHKTQDVRNGQVVVARIDDEVTVKRLKKQGNKVELLPENSEFKPIVVDLRQQSFTIEGLAVGVIRNGDWLMNVTSLFSFTSPAVKRLLGWKQGDEEEKWAEKAVDALVKKLKKKKGAMEELEKALSCPGQPSNCVTIPRSLDGRLQVSHRKGLPHVIYCRVWRWPDLQSHHELKPLECCEFPFGSKQKEVCINPYHYKRVESPVLPPVLVPRHSEYNPQHSLLAQFRNLGQNEPHMPLNATFPDSFQQPNSHPFPHSPNSSYPNSPGSSSSTYPHSPTSSDPGSPFQMPADTPPPAYLPPEDPMTQDGSQPMDTNMMAPPLPSEINRGDVQAVAYEEPKHWCSIVYYELNNRVGEAFHASSTSVLVDGFTDPSNNKNRFCLGLLSNVNRNSTIENTRRHIGKGVHLYYVGGEVYAECLSDSSIFVQSRNCNYHHGFHPTTVCKIPSGCSLKIFNNQEFAQLLAQSVNHGFETVYELTKMCTIRMSFVKGWGAEYHRQDVTSTPCWIEIHLHGPLQWLDKVLTQMGSPHNPISSVS
notes: also called Smad1pEG202; full length Smad1 bait

The data set “Smad3N (aa 1-144)” deals with B3. Description: co-immunoprecipitation, transfected cells.
The target of data set [1] is B10. Briefly: yeast two-hybrid (data not shown).
For data set [2], the target named is T1, p115HEF1 (full length HEF1, 115 kD form) (human, UniProt Q14511 1-834, form derived from differential phosphorylation; sites not given).
T1 construct: Transfected into 293 cells; tag not described
T1 sequence (looked up): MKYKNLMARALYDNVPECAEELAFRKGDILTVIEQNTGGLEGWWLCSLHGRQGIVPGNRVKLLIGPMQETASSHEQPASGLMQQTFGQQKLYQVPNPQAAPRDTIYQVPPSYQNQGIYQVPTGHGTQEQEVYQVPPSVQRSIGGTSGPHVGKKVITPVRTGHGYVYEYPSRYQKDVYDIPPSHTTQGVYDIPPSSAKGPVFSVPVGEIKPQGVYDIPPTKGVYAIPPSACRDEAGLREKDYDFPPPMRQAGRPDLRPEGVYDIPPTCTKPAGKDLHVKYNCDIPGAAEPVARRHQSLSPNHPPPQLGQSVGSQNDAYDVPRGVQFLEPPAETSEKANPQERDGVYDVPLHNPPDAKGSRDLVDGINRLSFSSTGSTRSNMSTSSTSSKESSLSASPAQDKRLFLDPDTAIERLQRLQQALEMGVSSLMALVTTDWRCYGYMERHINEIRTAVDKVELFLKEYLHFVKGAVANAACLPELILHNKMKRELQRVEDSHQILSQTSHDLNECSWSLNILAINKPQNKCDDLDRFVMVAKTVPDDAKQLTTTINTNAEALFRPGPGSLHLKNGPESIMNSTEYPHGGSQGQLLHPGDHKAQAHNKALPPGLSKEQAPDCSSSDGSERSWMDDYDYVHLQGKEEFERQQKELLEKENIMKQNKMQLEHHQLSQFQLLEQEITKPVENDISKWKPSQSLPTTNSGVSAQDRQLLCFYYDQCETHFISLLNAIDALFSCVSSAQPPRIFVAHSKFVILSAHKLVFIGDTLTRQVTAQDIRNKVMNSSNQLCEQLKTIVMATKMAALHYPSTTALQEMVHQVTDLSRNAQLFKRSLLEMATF
Description: co-immunoprecipitation, transfected 293 cells.

Data set [3] has as its target T2, p105HEF1 (full length HEF1, 105 kD form) (human, UniProt Q14511 1-834, form derived from differential phosphorylation; sites not given).
T2 construct: Transfected into 293 cells; tag not described
T2 sequence (looked up): T1 sequence (looked up)
Description: co-immunoprecipitation, transfected 293 cells.

The next data set concerns the target T3, HEF1 M2 (aa 651-834) (human, UniProt Q14511 651-834).
T3 construct: range 651-834
T3 sequence (looked up): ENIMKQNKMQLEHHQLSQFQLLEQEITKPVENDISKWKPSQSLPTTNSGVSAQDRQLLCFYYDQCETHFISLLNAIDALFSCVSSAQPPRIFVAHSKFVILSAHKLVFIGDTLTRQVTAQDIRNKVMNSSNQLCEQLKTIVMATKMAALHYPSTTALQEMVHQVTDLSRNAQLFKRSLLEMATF
Description: co-immunoprecipitation, transfected cells.

Data set [4] deals with B10. Briefly: yeast two-hybrid; list of Smad1 interactors. An excerpt:
(§1) From the pooled stock of the transformants, ten million cells are screened on U^-H^-W^-L^- galactose plates containing X-gal. Only those that form blue colonies are picked as candidate positives. […] Methods of sequencing employ such enzymes as the Klenow fragment of DNA polymerase I, Sequenase® (US Biochemical Corp, Cleveland, Ohio), Taq polymerase (Perkin Elmer, Norwalk, Conn.), thermostable T7 polymerase (Amersham, Chicago, Ill.), or combinations of recombinant polymerases and proofreading exonucleases such as the ELONGASE Amplification System (Gibco BRL, Gaithersburg, Md.). Preferably, the process is automated with machines such as the Hamilton Micro Lab 2200 (Hamilton, Reno Nev.), Peltier Thermal Cycler (PTC200; MJ Research, Watertown, Mass.) and the ABI 377 DNA sequencers (Perkin Elmer). […] The transformants are first streaked onto a master plate, then replicated onto two testing plates: U^-H^-W^- glucose plates with X-gal; U^-H^-W^- HW galactose/raffinose plates with X-gal.

For the next data set, the target named is T4, HsN3 (human, UniProt P28070 1-264, limits assumed).
T4 construct: also called β subunit of 20S proteasome; untagged HsN3 protein
T4 sequence (P28070 whole entry): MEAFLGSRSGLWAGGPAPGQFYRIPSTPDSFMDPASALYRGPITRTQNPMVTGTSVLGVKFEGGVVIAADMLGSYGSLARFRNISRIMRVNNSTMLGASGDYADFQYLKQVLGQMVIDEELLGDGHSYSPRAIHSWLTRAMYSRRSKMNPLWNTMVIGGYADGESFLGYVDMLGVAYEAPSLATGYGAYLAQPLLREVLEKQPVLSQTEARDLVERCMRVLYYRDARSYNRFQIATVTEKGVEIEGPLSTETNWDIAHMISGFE
Description: list of HsN3 interactors; method not detailed.

Data set [5] deals with T5, Uba 80 (ubiquitin fusion protein), clones S1+36 and S1+38 (human, UniProt P62979 1-156). Description: list of S1+12 interactors; method not detailed.
Data set [6] deals with the molecule itself. Description: list of S1+12 interactors; method not detailed.
The target of data set [7] is B10. Description: yeast two-hybrid screen, LexA-Smad1 bait.
Description: as §1

Data set [8] deals with T5, Uba 80 (ubiquitin fusion protein), …. Briefly: yeast two-hybrid screen, LexA-Smad1 bait.
Description: as §1

Consider B1, for which the binding result with Smad3N (aa 1-144) is on record as “no binding”.

As to B2, the figures for the binding result in data set [1], in data set [2] and in data set [3] were “binds”, “no binding” and “no binding”, respectively.

With B3, the binding result in the data set with HEF1 M2 (aa 651-834) is reported as “no binding”.

With B4, the binding result in data set [4] is recorded as “binds”.

Regarding B5, the binding result with Smad3N (aa 1-144) is “no binding”.

Regarding B6, the binding result (in data set [4]; in the data set with HsN3; in [5]; in data set [6]) was “binds” throughout.

Consider B7, for which, in [4], the binding result was “binds”.

For the molecule B8, the binding result in the data set with Smad3N (aa 1-144) is “no binding”.

As to B9, in data set [7], the binding result is “binds”.

In the case of B10, the binding result in [8] is “binds”.
